Reference: PMC10849960
Ends that are not written are not given here.

Assays:
[1] = biological target: RFdiffusion de novo PTH binder (picomolar); experiment: affinity purification with mass spectrometry; binder-conjugated beads capture PTH from human plasma supplemented with PTH; recovery by LC-MS/MS of the N-terminal tryptic peptide; triplicates
[2] = biological target: RFdiffusion de novo PTH binder (picomolar); experiment: affinity purification with mass spectrometry; binder-conjugated magnetic beads capture the peptide from buffer; recovery by LC-MS/MS (tryptic N-terminal peptide for PTH, intact peptide for GCG); triplicates

percent recovery [1]: 43% | percent recovery [2]: 53%
B1: parathyroid hormone (PTH) (peptide)
peptide: SVSEIQLMHNLGKHLNSMERVEWLRKKLQDVHNF
modifications: also: fluorescently labelled, label and position not given here
